According to patent publication US20210023177A1:

Key:
[1] = target: human Claudin 18 splice variant 2 (CLDN18.2) (human)
[2] = target: human Claudin 18 splice variant 2 (CLDN18.2) (human); experiment: cell-based or functional assay

B1: IMAB362 (antibody, INN chains, looked up, V domains shown)
VH: QVQLQQPGAELVRPGASVKLSCKASGYTFTSYWINWVKQRPGQGLEWIGNIYPSDSYTNYNQKFKDKATLTVDKSSSTAYMQLSSPTSEDSAVYYCTRSWRGNSFDYWGQGTTLTVSS
VL: DIVMTQSPSSLTVTAGEKVTMSCKSSQSLLNSGNQKNYLTWYQQKPGQPPKLLIYWASTRESGVPDRFTGSGSGTDFTLTISSVQAEDLAVYYCQNDYSYPFTFGSGTKLEIKR
B1 gave a CLDN18 surface expression (FACS), % of cells stained [1] of 81.7%, an ADCC EC50 (ng/ml), BxPC3 LVT cells [2] of 47.7 ng/mL and an ADCC EC50 (ng/ml), CAPAN1-LVT cells [2] of 65 ng/mL. The ADCC EC50 (ng/ml), DANG cells [2] was 4980 ng/mL, the ADCC EC50 (ng/ml), DANG-LVT cells [2] was 52.3 ng/mL and the ADCC EC50 (ng/ml), HPAC-LVT cells [2] was 117 ng/mL. The ADCC EC50 (ng/ml), MiaPaCa2-LVT cells [2] was 23.4 ng/mL, the ADCC EC50 (ng/ml), Panc05.04 cells [2] was 5730 ng/mL and the ADCC EC50 (ng/ml), Patu8902-LVT cells [2] was 49.2 ng/mL. For the same binder, the ADCC EC50 (ng/ml), Suit2-LVT cells [2] was 73.2 ng/mL, the ADCC EC50 (ng/ml), YAPC-LVT cells [2] was 29.5 ng/mL and the ADCC Max. lysis (%), BxPC3 LVT cells, human PBMC E:T 40:1 [2] was 90.6%. For the same binder, the ADCC Max. lysis (%), CAPAN1-LVT cells [2] was 92.6%, the ADCC Max. lysis (%), DANG cells [2] was 52.5% and the ADCC Max. lysis (%), DANG-LVT cells [2] was 85.9%. It also gave an ADCC Max. lysis (%), HPAC-LVT cells [2] of 76.2%, an ADCC Max. lysis (%), MiaPaCa2-LVT cells [2] of 78.1% and an ADCC Max. lysis (%), Panc05.04 cells [2] of 67.1%. For the same binder, the ADCC Max. lysis (%), Patu8902-LVT cells [2] was 74.1%, the ADCC Max. lysis (%), Suit2-LVT cells [2] was 81.2% and the ADCC Max. lysis (%), YAPC-LVT cells [2] was 91.5%. For the same binder, the CDC EC50 (ng/ml), CAPAN1-LVT cells [2] was 970 ng/mL, the CDC EC50 (ng/ml), MiaPaCa2-LVT cells [2] was 340 ng/mL and the CDC EC50 (ng/ml), Patu8902-LVT cells [2] was 291 ng/mL. It also gave a CDC EC50, gemcitabine pretreated MiaPaCa-2-LVT cells [2] of 4.68 mg/L, a CDC EC50, medium cultivated MiaPaCa-2-LVT cells [2] of 7.67 mg/L and a CDC Max. lysis (%), CAPAN1-LVT cells [2] of 79.1%. For the same binder, the CDC Max. lysis (%), MiaPaCa2-LVT cells [2] was 78.4% and the CDC Max. lysis (%), Patu8902-LVT cells [2] was 76.7%.
